Sequences and labels used below:
B1: CASP6 (parent)
chain: TCADRDNLTRRFSDLGFEVKCFND
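Further: lentivirally expressed fusions sorted by FACS into six bins by GFP to DsRed ratio, PSI derived from sequencing read proportions per bin multiplied by bin number.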

This series covers variants of B1. Description: protein stability index of a GFP-peptide fusion (GPS, HEK-293T) (PSI 1-6); higher = more stable. The following applies: c terminus: a fixed tail appended.
Regarding TCADRDNLTRRFSDLGFEVKHFND [C21H], the protein stability index amounted to 3.72.

Consider TCADRDNLTRRFSDLGFEVKIFND [C21I], for which the protein stability index came out at 2.52.

As to TCADRDNLTRRFSDLGFEVKNFND [C21N], the protein stability index turned out to be 3.82.

Take TCADRDNLTRRFSDLGFEVKGFND [C21G]: the protein stability index amounted to 3.5.

Consider TCADRDNLTRRFSDLGFEVKFFND [C21F], for which the protein stability index came out at 2.16.

As for TCADRDNLTRRFSDLGFEVKKFND [C21K], the protein stability index came to 4.2.

On to TCADRDNLTRRFSDLGFEVKPFND [C21P], for which the protein stability index worked out at 3.17.

As to TCADRDNLTRRFSDLGFEVKLFND [C21L], the protein stability index was found to be 2.85.

In the case of TCADRDNLTRRFSDLGFEVKEFND [C21E], the protein stability index came to 4.3.

Regarding TCADRDNLTRRFSDLGFEVKVFND [C21V], the protein stability index was found to be 2.67.

On to TCADRDNLTRRFSDLGFEVKAFND [C21A], for which the protein stability index came to 3.53.

For the variant TCADRDNLTRRFSDLGFEVKWFND [C21W], the protein stability index was 2.63.

For the variant TCADRDNLTRRFSDLGFEVKTFND [C21T], the protein stability index was determined as 3.98.

On to TCADRDNLTRRFSDLGFEVKSFND [C21S], for which the protein stability index was 4.01.

In the case of TCADRDNLTRRFSDLGFEVKRFND [C21R], the protein stability index is 3.72.

On to TCADRDNLTRRFSDLGFEVKMFND [C21M], for which the protein stability index worked out at 3.2.

With TCADRDNLTRRFSDLGFEVKYFND [C21Y], the protein stability index was 2.97.

As to TCADRDNLTRRFSDLGFEVKQFND [C21Q], the protein stability index is 4.05.

Consider TCADRDNLTRRFSDLGFEVKDFND [C21D], for which the protein stability index worked out at 4.17.

For the variant TCADRDNLTRRFSDLGVEVKCFND [F17V], the protein stability index stood at 3.61.

Consider TCADRDNLTRRFSDLGIEVKCFND [F17I], for which the protein stability index was 3.54.

Consider TCADRDNLTRRFSDLGGEVKCFND [F17G], for which the protein stability index amounted to 4.34.

Consider TCADRDNLTRRFSDLGREVKCFND [F17R], for which the protein stability index worked out at 2.95.

Take TCADRDNLTRRFSDLGAEVKCFND [F17A]: the protein stability index worked out at 3.7.

Take TCADRDNLTRRFSDLGKEVKCFND [F17K]: the protein stability index stood at 3.37.

Take TCADRDNLTRRFSDLGMEVKCFND [F17M]: the protein stability index was found to be 3.58.

As to TCADRDNLTRRFSDLGLEVKCFND [F17L], the protein stability index stood at 4.16.

For the variant TCADRDNLTRRFSDLGNEVKCFND [F17N], the protein stability index amounted to 4.26.

Take TCADRDNLTRRFSDLGTEVKCFND [F17T]: the protein stability index came to 3.75.

For TCADRDNLTRRFSDLGQEVKCFND [F17Q], the protein stability index worked out at 4.29.

For the variant TCADRDNLTRRFSDLGHEVKCFND [F17H], the protein stability index worked out at 3.47.

As to TCADRDNLTRRFSDLGEEVKCFND [F17E], the protein stability index came out at 4.52.

In the case of TCADRDNLTRRFSDLGWEVKCFND [F17W], the protein stability index turned out to be 2.44.

For the variant TCADRDNLTRRFSDLGYEVKCFND [F17Y], the protein stability index was found to be 2.62.

As to TCADRDNLTRRFSDLGCEVKCFND [F17C], the protein stability index was found to be 3.36.

Turning to TCADRDNLTRRFSDLGSEVKCFND [F17S], the protein stability index was 4.17.

Consider TCADRDNLTRRFSDLGPEVKCFND [F17P], for which the protein stability index is 4.04.

Regarding TCADRDNLTRRFSDLGDEVKCFND [F17D], the protein stability index was found to be 4.8.

With TCADRDNLTRRFSDIGFEVKCFND [L15I], the protein stability index is 2.91.

Regarding TCADRDNLTRRFSDPGFEVKCFND [L15P], the protein stability index amounted to 4.59.

Turning to TCADRDNLTRRFSDSGFEVKCFND [L15S], the protein stability index was determined as 4.02.

Consider TCADRDNLTRRFSDFGFEVKCFND [L15F], for which the protein stability index is 3.07.

Regarding TCADRDNLTRRFSDAGFEVKCFND [L15A], the protein stability index worked out at 3.16.

For the variant TCADRDNLTRRFSDHGFEVKCFND [L15H], the protein stability index was determined as 3.65.

Regarding TCADRDNLTRRFSDRGFEVKCFND [L15R], the protein stability index is 3.27.

Consider TCADRDNLTRRFSDTGFEVKCFND [L15T], for which the protein stability index stood at 4.13.

For the variant TCADRDNLTRRFSDDGFEVKCFND [L15D], the protein stability index is 3.92.

In the case of TCADRDNLTRRFSDKGFEVKCFND [L15K], the protein stability index came to 4.11.

In the case of TCADRDNLTRRFSDGGFEVKCFND [L15G], the protein stability index was 3.69.

For TCADRDNLTRRFSDVGFEVKCFND [L15V], the protein stability index was 3.15.

With TCADRDNLTRRFSDCGFEVKCFND [L15C], the protein stability index stood at 2.58.

As to TCADRDNLTRRFSDYGFEVKCFND [L15Y], the protein stability index came to 3.02.

Turning to TCADRDNLTRRFSDMGFEVKCFND [L15M], the protein stability index came to 3.85.

For TCADRDNLTRRFSDWGFEVKCFND [L15W], the protein stability index is 2.75.

For TCADRDNLTRRFSDQGFEVKCFND [L15Q], the protein stability index turned out to be 3.43.

Take TCADRDNLTRRFSDNGFEVKCFND [L15N]: the protein stability index was found to be 3.94.

TCADRDNLTRRFSDEGFEVKCFND [L15E]: the protein stability index came to 4.57.

Regarding TCADRDNLTRRWSDLGFEVKCFND [F12W], the protein stability index was 3.1.

TCADRDNLTRRYSDLGFEVKCFND [F12Y]: the protein stability index stood at 3.45.

As for TCADRDNLTRRFSDLGFEEKCFND [V19E], the protein stability index was 4.31.

Consider TCADRDNLTRRFSDLGFEFKCFND [V19F], for which the protein stability index was determined as 2.69.

On to TCADRDNLTRRFSDLGFEWKCFND [V19W], for which the protein stability index came to 2.76.

Take TCADRDNLTRRFSDLGFEDKCFND [V19D]: the protein stability index came to 4.93.

Regarding TCADRDNLTRRFSDLGFEGKCFND [V19G], the protein stability index is 4.08.

For TCADRDNLTRRFSDLGFEKKCFND [V19K], the protein stability index is 3.94.

TCADRDNLTRRFSDLGFENKCFND [V19N]: the protein stability index was 3.9.

For the variant TCADRDNLTRRFSDLGFELKCFND [V19L], the protein stability index is 2.57.

Take TCADRDNLTRRFSDLGFEIKCFND [V19I]: the protein stability index worked out at 3.44.

Take TCADRDNLTRRFSDLGFESKCFND [V19S]: the protein stability index was determined as 3.8.

With TCADRDNLTRRFSDLGFETKCFND [V19T], the protein stability index stood at 4.24.

TCADRDNLTRRFSDLGFEYKCFND [V19Y]: the protein stability index came to 3.5.

With TCADRDNLTRRFSDLGFEAKCFND [V19A], the protein stability index is 3.62.

For the variant TCADRDNLTRRFSDLGFEPKCFND [V19P], the protein stability index worked out at 4.38.

For the variant TCADRDNLTRRFSDLGFECKCFND [V19C], the protein stability index was 1.95.

As to TCADRDNLTRRFSDLGFEQKCFND [V19Q], the protein stability index came to 3.85.

As for TCADRDNLTRRFSDLGFEMKCFND [V19M], the protein stability index turned out to be 3.49.

On to TCADRDNLTRRFSDLGFEHKCFND [V19H], for which the protein stability index was determined as 3.36.

In the case of TCADRDNLTRRFSDLGFERKCFND [V19R], the protein stability index came to 3.48.

Consider TCADRDNLTRRFSDLWFEVKCFND [G16W], for which the protein stability index stood at 1.93.

In the case of TCADRDNLTRRFSDLTFEVKCFND [G16T], the protein stability index was determined as 3.04.

With TCADRDNLTRRFSDLEFEVKCFND [G16E], the protein stability index is 3.83.

Consider TCADRDNLTRRFSDLMFEVKCFND [G16M], for which the protein stability index turned out to be 2.14.

Regarding TCADRDNLTRRFSDLHFEVKCFND [G16H], the protein stability index came to 2.84.

With TCADRDNLTRRFSDLCFEVKCFND [G16C], the protein stability index was determined as 3.18.

As to TCADRDNLTRRFSDLRFEVKCFND [G16R], the protein stability index is 3.13.

For the variant TCADRDNLTRRFSDLVFEVKCFND [G16V], the protein stability index was 1.92.

Regarding TCADRDNLTRRFSDLKFEVKCFND [G16K], the protein stability index worked out at 2.68.

As to TCADRDNLTRRFSDLQFEVKCFND [G16Q], the protein stability index was 3.31.

For TCADRDNLTRRFSDLNFEVKCFND [G16N], the protein stability index amounted to 3.61.

For the variant TCADRDNLTRRFSDLPFEVKCFND [G16P], the protein stability index was determined as 3.54.

In the case of TCADRDNLTRRFSDLYFEVKCFND [G16Y], the protein stability index stood at 2.27.

Regarding TCADRDNLTRRFSDLLFEVKCFND [G16L], the protein stability index was 1.89.

As for TCADRDNLTRRFSDLDFEVKCFND [G16D], the protein stability index amounted to 3.33.

In the case of TCADRDNLTRRFSDLSFEVKCFND [G16S], the protein stability index is 3.26.
